Measurements reported in patent publication US20210115146A1.

Legend:
[1] = target: Macaca fascicularis EGFR (cell surface) (Macaca fascicularis); test: FACS binding to W562.CHOK1.cPro1.H6 cells (monkey EGFR), upper panel and table
[2] = target: mouse EGFR (cell surface) (mouse) (UniProt Q01279); test: FACS binding to W562-CHO-K1.mPro1.F3 cells (mouse EGFR), lower panel and table
[3] = target: Macaca fascicularis EGFR (cell surface) (Macaca fascicularis); test: FACS binding to W562-CHO-K1.cPro1.H6 cells (monkey EGFR), lower panel and table
[4] = target: mouse EGFR (cell surface) (mouse) (UniProt Q01279); test: FACS binding to W562-CHO-K1.mPro1.F3 cells (mouse EGFR), lower panel and table; the curve is still rising at 100 nM
[5] = target: mouse EGFR (cell surface) (mouse) (UniProt Q01279); test: FACS binding to mouse EGFR cells; the table head prints W562.CHOK1.cPro1.H6

EC50 [1]: 1.47 nM
Top MFI [1]: 37500 MFI
TOP MFI [2]: 32800 MFI
EC50 [3]: 1.24 nM
TOP MFI [3]: 16000 MFI
EC50 [4]: 6.41 nM
EC50 [5]: 2.42 nM
Top MFI [5]: 31000 MFI
B1: W562-BMK3 (antibody, from another filing, human IgG1, V domains shown)
VH: QVQLQESGPGLVKPSETLSLTCTVSGLSLASNSVSWIRQPPGKGLEWMGVIWNHGGTDYNPSIKSRLSISRDTSKSQVFLKMNSLTAADTAMYFCVRKGGIYFDYWGQGVLVTVSS
VL: DTVLTQSPSLAVSPGERATISCRASESVSTLMHWYQQKPGQQPKLLIYLASHRESGVPARFSGSGSGTDFTLTIDPMEAEDTATYYCQQSRNDPWTFGQGTKLELKR
